Measurements published in paper PMC7655957.

Legend:
HOOK1 (Homo sapiens) = HOOK1 (Homo sapiens) (UniProt Q9UJC3); conditions: cited from earlier work
HOOK3 (Homo sapiens) = HOOK3 (Homo sapiens) (UniProt Q86VS8); conditions: cited from earlier work
[1] = biological target: WT_(ZIP+)/WT_(ZIP−), BICD2_(1–98) heterodimer with C-terminal ZIP+/ZIP− leucine zipper (mouse (cDNA, methods); called human in the results and in the legend of Fig. 1) (UniProt Q921C5); experiment: ITC; LIC1_(433–458) peptide titrated into ZIP+/ZIP− BICD2 heterodimers in the cell; 20 mM HEPES (pH 7.5), 100 mM NaCl, 0.5 mM TCEP; temperature given in the figure
[2] = biological target: Y46D_(ZIP+)/WT_(ZIP−), half-functional BICD2_(1–98) heterodimer with C-terminal ZIP+/ZIP− leucine zipper (mouse (cDNA, methods); called human in the results and in the legend of Fig. 1) (UniProt Q921C5); experiment: as above

Sequence of LIC1_(433–458), amphipathic helix of the dynein light intermediate chain-1 (Q9Y6G9 433-458): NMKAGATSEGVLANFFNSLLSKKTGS
Sequence of LIC1 (Q9Y6G9 whole entry): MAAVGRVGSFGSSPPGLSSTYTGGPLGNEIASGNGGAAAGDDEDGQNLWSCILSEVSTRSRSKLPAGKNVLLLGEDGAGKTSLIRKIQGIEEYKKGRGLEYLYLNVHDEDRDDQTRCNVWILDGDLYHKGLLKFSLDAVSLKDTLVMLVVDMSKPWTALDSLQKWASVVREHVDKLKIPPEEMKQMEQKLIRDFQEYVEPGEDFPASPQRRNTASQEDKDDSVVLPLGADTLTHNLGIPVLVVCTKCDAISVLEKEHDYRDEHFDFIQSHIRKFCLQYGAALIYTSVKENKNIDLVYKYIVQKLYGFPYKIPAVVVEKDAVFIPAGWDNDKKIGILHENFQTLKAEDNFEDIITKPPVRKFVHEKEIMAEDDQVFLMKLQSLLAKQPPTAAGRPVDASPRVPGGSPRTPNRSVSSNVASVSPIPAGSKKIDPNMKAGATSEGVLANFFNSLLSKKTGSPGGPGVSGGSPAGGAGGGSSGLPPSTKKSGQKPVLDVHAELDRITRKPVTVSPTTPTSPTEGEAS
Sequence of HOOK1 (Homo sapiens) (Q9UJC3 whole entry): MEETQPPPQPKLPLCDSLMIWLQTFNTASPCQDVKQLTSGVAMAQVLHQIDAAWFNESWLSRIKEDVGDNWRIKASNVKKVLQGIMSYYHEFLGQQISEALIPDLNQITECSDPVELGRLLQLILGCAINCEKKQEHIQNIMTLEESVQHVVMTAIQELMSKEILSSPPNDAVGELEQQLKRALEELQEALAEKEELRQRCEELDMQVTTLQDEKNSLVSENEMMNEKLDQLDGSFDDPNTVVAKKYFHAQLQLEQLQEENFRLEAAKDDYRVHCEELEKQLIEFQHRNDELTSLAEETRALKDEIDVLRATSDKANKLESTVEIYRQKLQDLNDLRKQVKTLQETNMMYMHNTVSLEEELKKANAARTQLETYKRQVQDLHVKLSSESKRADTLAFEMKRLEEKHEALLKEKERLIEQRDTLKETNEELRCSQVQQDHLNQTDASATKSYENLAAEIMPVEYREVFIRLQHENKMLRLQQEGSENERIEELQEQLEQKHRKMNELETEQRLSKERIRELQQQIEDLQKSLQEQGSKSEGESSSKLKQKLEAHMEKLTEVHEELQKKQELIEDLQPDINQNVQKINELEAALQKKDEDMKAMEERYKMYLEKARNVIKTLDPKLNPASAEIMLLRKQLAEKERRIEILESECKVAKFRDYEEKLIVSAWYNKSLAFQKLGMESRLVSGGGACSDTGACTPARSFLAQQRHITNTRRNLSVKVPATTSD
Sequence of HOOK3 (Homo sapiens) (Q86VS8 whole entry): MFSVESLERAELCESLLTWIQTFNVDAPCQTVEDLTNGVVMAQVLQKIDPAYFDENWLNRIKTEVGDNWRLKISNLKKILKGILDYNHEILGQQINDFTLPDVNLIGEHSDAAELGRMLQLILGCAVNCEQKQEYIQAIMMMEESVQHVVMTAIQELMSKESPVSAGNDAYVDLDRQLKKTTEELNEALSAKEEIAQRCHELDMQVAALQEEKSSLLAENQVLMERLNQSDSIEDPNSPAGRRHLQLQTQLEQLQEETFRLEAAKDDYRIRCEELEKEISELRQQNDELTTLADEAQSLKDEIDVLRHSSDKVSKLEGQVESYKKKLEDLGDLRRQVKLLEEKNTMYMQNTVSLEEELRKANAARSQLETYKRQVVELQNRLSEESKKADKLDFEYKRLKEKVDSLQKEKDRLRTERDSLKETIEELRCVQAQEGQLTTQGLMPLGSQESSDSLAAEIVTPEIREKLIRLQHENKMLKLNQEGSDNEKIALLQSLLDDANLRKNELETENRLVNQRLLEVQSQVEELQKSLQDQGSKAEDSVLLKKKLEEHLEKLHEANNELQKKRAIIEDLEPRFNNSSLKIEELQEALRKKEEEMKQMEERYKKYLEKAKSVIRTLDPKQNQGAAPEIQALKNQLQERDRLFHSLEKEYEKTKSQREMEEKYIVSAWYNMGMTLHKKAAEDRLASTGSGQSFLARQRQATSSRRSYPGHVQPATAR

Substance	Kd (HOOK1 (Homo sapiens)) [µM]	Kd (HOOK3 (Homo sapiens)) [µM]	Kd [1] [µM]	stoichiometry N [1]	Kd [2] [µM]	stoichiometry N [2]
LIC1 (from UniProt Q9Y6G9)	15.7	6.3	–	–	–	–
LIC1_(433–458), amphipathic helix of the dynein light intermediate chain-1 (from UniProt Q9Y6G9 433-458) (peptide)	–	–	6.8	2	6.2	1.1
